# Measurements: PMC10140023 (2023)
# T1: GFP-POLD1 (human, UniProt P28340 1-1107)
# T1 chain: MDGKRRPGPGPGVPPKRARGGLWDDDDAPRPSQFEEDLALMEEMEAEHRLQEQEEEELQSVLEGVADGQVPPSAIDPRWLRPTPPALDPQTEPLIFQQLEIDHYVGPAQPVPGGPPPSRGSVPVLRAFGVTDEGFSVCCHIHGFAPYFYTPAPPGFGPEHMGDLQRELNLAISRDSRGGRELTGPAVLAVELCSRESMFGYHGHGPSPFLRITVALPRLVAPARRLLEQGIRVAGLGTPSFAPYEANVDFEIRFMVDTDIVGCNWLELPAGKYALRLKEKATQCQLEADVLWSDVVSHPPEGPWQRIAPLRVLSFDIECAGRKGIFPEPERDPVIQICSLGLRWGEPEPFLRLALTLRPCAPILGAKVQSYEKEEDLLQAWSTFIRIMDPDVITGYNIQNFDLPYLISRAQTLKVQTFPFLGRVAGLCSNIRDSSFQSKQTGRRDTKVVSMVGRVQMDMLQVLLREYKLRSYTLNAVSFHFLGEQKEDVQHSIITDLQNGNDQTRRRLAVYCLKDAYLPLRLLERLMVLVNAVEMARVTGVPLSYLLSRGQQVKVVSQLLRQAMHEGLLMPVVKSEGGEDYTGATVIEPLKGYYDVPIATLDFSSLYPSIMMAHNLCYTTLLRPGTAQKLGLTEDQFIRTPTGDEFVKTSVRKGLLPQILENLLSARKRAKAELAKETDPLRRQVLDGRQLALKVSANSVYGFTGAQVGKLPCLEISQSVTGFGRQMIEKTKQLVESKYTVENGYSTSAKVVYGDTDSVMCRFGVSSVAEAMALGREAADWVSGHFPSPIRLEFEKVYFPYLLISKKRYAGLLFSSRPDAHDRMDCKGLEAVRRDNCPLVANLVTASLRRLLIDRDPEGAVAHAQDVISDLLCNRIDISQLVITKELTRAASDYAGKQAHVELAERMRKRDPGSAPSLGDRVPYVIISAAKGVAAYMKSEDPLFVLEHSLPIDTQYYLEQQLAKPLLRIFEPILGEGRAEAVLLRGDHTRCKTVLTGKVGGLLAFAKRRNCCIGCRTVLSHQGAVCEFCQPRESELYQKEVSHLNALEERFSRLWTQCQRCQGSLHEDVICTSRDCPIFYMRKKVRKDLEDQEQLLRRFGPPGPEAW
# B1: MB1-T58D peptide (peptide)
# peptide: APSEDIWKKFELLPDPPLSP
# B2: MB1-T58A peptide (peptide)
# peptide: APSEDIWKKFELLPAPPLSP
# B3: MYC-MB1 (WT) peptide (peptide)
# peptide: APSEDIWKKFELLPTPPLSP
# Target: T1, GFP-POLD1
# Assay: MST
row,Kd [µM],Binder
1,30.8,B1
2,49.9,B2
3,34.5,B3

# Target: GFP-FBXW7α (human, UniProt Q969H0 1-707)
# Sequence (Q969H0 whole entry): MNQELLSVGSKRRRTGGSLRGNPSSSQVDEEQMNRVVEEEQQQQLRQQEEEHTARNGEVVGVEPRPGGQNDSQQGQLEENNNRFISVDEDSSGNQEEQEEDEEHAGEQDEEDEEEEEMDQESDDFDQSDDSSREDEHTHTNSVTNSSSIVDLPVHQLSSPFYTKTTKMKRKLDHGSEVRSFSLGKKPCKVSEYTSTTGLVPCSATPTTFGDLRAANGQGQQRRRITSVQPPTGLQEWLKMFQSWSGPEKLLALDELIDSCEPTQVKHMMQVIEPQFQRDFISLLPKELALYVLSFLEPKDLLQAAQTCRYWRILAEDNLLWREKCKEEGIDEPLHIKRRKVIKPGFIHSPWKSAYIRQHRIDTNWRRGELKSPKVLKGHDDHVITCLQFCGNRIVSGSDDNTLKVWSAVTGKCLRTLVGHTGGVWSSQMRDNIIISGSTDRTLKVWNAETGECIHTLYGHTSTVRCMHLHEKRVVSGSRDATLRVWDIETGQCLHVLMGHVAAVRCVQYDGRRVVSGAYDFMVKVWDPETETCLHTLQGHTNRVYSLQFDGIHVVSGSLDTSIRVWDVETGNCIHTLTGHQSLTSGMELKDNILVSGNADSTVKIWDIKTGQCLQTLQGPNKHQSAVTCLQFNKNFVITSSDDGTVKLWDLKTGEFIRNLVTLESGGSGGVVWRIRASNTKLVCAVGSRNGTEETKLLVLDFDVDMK
# Assay: MST
row,Kd [µM],Binder
1,110,B1
2,2160,B2
3,700,B3
